The data set can be described thus: Light scattering of tirzepatide samples (apparent weight-average molecular weight, self-association). In kind it is physicochemical. The note with it: Mounjaro™ matrix (5 mM phosphate buffer, 140 mM NaCl, pH=7.0), 5 mg/mL to 30 mg/mL. The procedure:
Tirzepatide formulations were prepared for light scattering measurements, with compositions detailed in Tables 1.a and 1.b. Light scattering data were collected using an ALV-CGS3 goniometer-based light scattering instrument (ALV-GmbH, Langen, Germany), which is a self-contained system with 22 mW 633 nm HeNe laser. Samples were filtered into disposable glass tubes using appropriate filters. Corresponding drug product placebos were used as scattering blanks. A single 15- or 30-second-long acquisition at 90-degree scattering angle was collected per sample, using the dynamic light scattering (DLS) mode. The resulting DLS auto-correlation functions were analyzed using intensity-weighted regularized size distributions, and shown to be monomodal before proceeding. The time-averaged scattering intensity values of the samples, placebos and toluene were used to calculate the excess Rayleigh ratios.
Apparent weight-average molecular weight (WAMW) values were calculated using formula (1):
[formula] • where K is an optical constant, c is the peptide mass concentration, and R is the excess Rayleigh ratio. A refractive index increment (dn/dc) of 0.185 mL/g was assumed.
To study the effect of preservatives, m-cresol, phenol or benzyl alcohol at selected concentrations were added to a standard Mounjaro™ composition. […]

For tirzepatide, the self-association of tirzepatide result is “monomer-trimer-hexamer equilibrium”.
